Laboratory results from the nanobody polyreactivity screen of Harvey et al. (2022).

test: yeast display, Sf9 membrane polyspecificity reagent, FACS + sequencing; frameworks hold sequencing errors
Summary of the method: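 Polyreactivity labels are assigned by the sorting gate from which each nanobody was recovered. The gates were low and high (top ~1%), set on anti-HA fluorescence for expression and streptavidin fluorescence for reagent binding. Before sorting, galactose-induced (36–48 hours) yeast display cells were stained for 1 hour at 4 °C with 10% biotinylated, detergent-solubilized Sf9 membrane reagent.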

Sequence | polyreactivity (PSR sort gate)
QVQLVESGGGLVQAGGSLRLSCAASGSIFGRYAMGWYRQAPGKERELVAAISYSGGSTYYADSVKGRFTISRDNAKNTVYLQMKSLKPEDTAFYYCAAEPSYYTRWFDGHYYYWGQGSQVTVSS | high polyreactivity
QVQLVESGGGLDQAGGSLRLSCAASGSIFFGNAMGWSRQPPGKERELVAAITTSGGSTYYADSVKGRFTISRDNAKNTLYLQMNSLKPEDTAVYYCYARIASWLGSRYEYWGQGTQVTVSS | low polyreactivity
QVQLVASGGGLVQAGGSLRLSCAASGFIFWYYAMGWYRQAPGKERELVATITSGGSTTYADSVKGRFTISRDNAKNTVYLQMYSLKPEDTAVYYCAAKGISRYDWGQGTQVTVSS | low polyreactivity
QVQLVESGGGLVQAGGSLRLSCAASGSTFSKYFMGWYSQAPGKERELVAAISGGDRTYYADSVKGRFTISRDNAKNTVYLQMNSLKTEVTAVYDCAAEVLKTRWSYDYWGQGTQVTVSS | high polyreactivity
QVQLVESGGGLVQAGGSLRLSCAASGRIFAYNAMGWYRQAPGKERELVATITSSGDGTSYADSVKGRFTISRDNAKNTVYLQMNSLKPEDTAVYYCNKVTRVRRDPYDAVAYRGGYWGQGTQVTVSS | high polyreactivity
QVQLVESGGGLVQAGGSLRLSCAASGFTFHPNAMGWYRPAPGKERELVAAISTRGGSTAYADSVKGRFTISRDNAKNTVYLLMNSLKPEDTAVYYCAARTSSTKYYYWGQGTQVTVSS | high polyreactivity
QVQLVESGGGLVQAGGSLRLICAASGIIFDVYAMGWYRQAPGKERELVAAISYGGGTTYYADSVKGRFTISRDNAKNTVYLQMNSLKPEDTAVYYCAADSYRSIGDDYWGQGTQVTVSS | high polyreactivity
QVQLVESGGGLVQAGGSLRLSCAASGFIFGYYAMGWYRQAPGKERELVAAITRSGGSTRYADSVKGRFTISRDNANNNVYLQMNSLKPEDSAVYYCATRDGTHGYWGQGTQVTASS | high polyreactivity
QVQLVESGGGLVQAGGSLRLSSAASGSIFPYYAMGWYRQAPGKERELVAAISWSGTSTYYADSVKGRFTISRDNAKNTVYLQMNSLKPEDTAVYYCNAGYYHFYASGYDYWGQGTQVTVSS | low polyreactivity
QVQLVESGGGLVQAGGSLRLSCSASGSIFLIYAMGWYRQAPGKERELVATINRGDNTYYADSVKGRFTISRDNAKNSVYLQMNSLKPEDTAVYYCAARAYDLGYAGYDYWGQGTQVTVSS | low polyreactivity
QVQLVESGGGLVQAGGSLRLSCAASGSIFDYYAMGWYRQAPGKERELVATISGGGGTTYYADSVKGRFTISRDNAKNTVYLQMNSLKPEDTAVYYCAAVSLGYNYWGQGTQVTVSS | low polyreactivity
QVQLVESGGGLVQAGGSIRLSCAASGRIFIYNVMGWYRQAPGKERELVATISTGGTTNYADSVKGRFTISRDNAKNTVYLQMNSLKPEETAVYYCIRGSGYWYLPAVKYDHWGQGTQVTVSS | low polyreactivity
QVQLVESGGGLVQAGGSLRLSCAASGSPFYGYGMGWYRQAPVKERELVAASTRSGGSTYYADSVKGRFTRSRDNAKNTVYVQKNSLKPEDTEVYYCNKSGYKGGVGYDYWGQGTQVTVSS | high polyreactivity
QVQLVESGGGLVQAGGSLRLSCAASGSIFWDYAMGWYRQAPGKERELVAAISSNGGNTYYADSVKGRFTISRDNAKNTVYLQMNSLKPEDTAVYYCAARAKRRHGYWGQGTQVTVSS | high polyreactivity
QVQLVESGGGLVQAGGSLRISCAPSGRIFSYNAMGWYRPAPGKERELVAAINYSDDSTYYADSVKGRFTISRDNAKNTVYLQMNSLKPEDTAVYYCNADASSIVPSYDRPFDYWGQATQVTVSS | low polyreactivity
QVQLVESGGGLVQAGGSLRLSCAASGSIFRFYAMGWYRQAPGKERELVATISKRGGTTYYADSVKGRFTISRDNAKNTVYLQMNSLKPEDTAVYYCAVRLYLEMDYWGQGTPVTVSS | high polyreactivity
QVQLVESGGGLVQAGGSLRLSCAASGLTFWPYAMGWYRQAPGKERELVAAISSSGRTYYADSVKGRFTISRDNAKNTVYLQMNSLKPEDTAVYYCARRFWFHYYGYDYWGQGTQVTVSS | high polyreactivity
QVQLVESGGGLVQAGGSLRLSCAASGSIFFPYAMGWYRQATGKERELVASINSGGITTYADSVKGRFTISRDNAKNTVYLQMNSLKPEDTAVYYCARYVSYRWVRYNYWGQGTQVTVSS | high polyreactivity
QVQLVESGGGLVQAGGSLRLSCAPSGRIFVYYTMGWYRQAPGKERELVAAITGSGGSTYYADSVKGRFTISRDNAKYTVYLQMNSLKPVDTAVYYCAVYDSYRKFKYWGQGTQVTVSS | high polyreactivity
QVQLVESGGGLVQAGGSLRLSCAASGFTFYFYAMGWYRQAPGKERDLVAAINSGDSTYYADSVKGRFTISSDNEKNTVYLQMNSLKPEDTAVYYCSAAQFIQLRDYWGQGTQVTVSS | high polyreactivity
QVQLEDSGGGLVQAGGSLRLSSAASGIIFYPNAMGWYRQSPGKERELVAAITSDGSTYYADSVKGRFTISRDNAKNTVYLQMNSLKPEDTAVYYCDDWDDYGYDYWGQGTQVTVSS | low polyreactivity
QVQLVESGGGLVQAGGSLRLSCAASGRIFPDYDMGWYRQAPGKERELVAAITQRGGSTYADSVKGRFTISRDNAKNTVYLQMNSLKPEDTAVYYCAREYYEAYEYWGQGTQVTVSS | low polyreactivity

Sequence | polyreactivity (PSR sort gate)
QVQLVESGGGLVQSGGSLRLSCAASGRIIKSYAMGRYRQAPGKERELVAAISRSGGRTYYADSVKGRFSISRDNAKNTVYLQMISLKPEDTAVYYCAATTFVAPSWGQGTQVTVSS | low polyreactivity
QVQLVESGGGLVQAGGSLRLSCAASGFTFRYNAMGWYRKPPGKERELVAAITSGGNTNYADSVKGRFTISRDNAKNTVYLQMNSLKPEDTAVYYCNTAWRDYVARLGGVGYDYWGQGTQVTVSS | high polyreactivity
QVQLVESGGGLVQAGGSLRLSCAASGFTFSVYAMGWYRQAPGKERELVAAISDSGGRTYYADSVKGRFTISRDNEKNTVYLQMNSLKPEDSAVYYWKARPAGRGYNYWGQGTQVTVSS | high polyreactivity
QVQLVESGGGLVQAGGSLRLSCAASGFIFKRYAMGWYRQAPGKEREFVAAISWGGGNTYYADSVKGRFTISRDNAKNTVYLQMNSLKPEDTAVYYCAKVTSALKYGYWGQGTQVTVSS | high polyreactivity
QVQLVESGGGLVQAGGSLRLSCAASGSTFEGYAMGWYRQAPGKERELVAVISSGSITKYADSVKGRFTISRDNAKNTVYLQMNSLKQEDTAVYYCAADWTYVRFDYWGQGTQVTVSS | low polyreactivity
QVQLVESGGGLVQAGGSLRLSCAASGRTFGANAMGWYRQAPGKERELVATIRRGGSTYYADSVKGRFTISRDNAKNTVYLLMNSLKPEDTAVYYCATQYHSYAKEYDYWGQGTQVTVSS | low polyreactivity
QVQLVESGGGLVQAGGSLRLSCAASGSTFVYYAMGWYRQAPGKERELVAAISWSGTRTYYADSVKGRFTISRDNAKNTVYLQMNSLKPEDTAVYYCATRKQSRSVGYNYWGQGTQVTVSS | high polyreactivity
QVQLVESGGGLVQAGGSLRLSCAASGSTFYVNVMGWYRQAPGKERELVAGITIRDGSTYYADSVKGRFTISRDNAKNTVYLQMNSLKPEDTAVYYCARAGDGEYKRDYWGQGTQVTVSS | low polyreactivity
QVQLVESGGGLVQAGGSLRLSCAASGRIFSYYDMGWYRQAPGKERELVAVISSRGGSTFYADSVKGRFTISRDNAKNTVYLLMNSLKAEDTAVYDCASRSLYVGYDYWGQCTQVTVSS | high polyreactivity
QVQLVESGGGLVQEGGSLRLSCAASGLTFSPYAMGWYRQAPGKERELVATITIGGSTKYADSVKGRFTISRDNAKNTVYLQMNSLKPEDTAVYYCAVRSGYVTRRYDYWGQGTQVTVSS | low polyreactivity
QIQLVESGGGLDQAGGSLRLSCAASGSNFVWNAMGWSRQAPGKERELVAAISYTDGSTYYADSVKGRFTISRDNAKNTVYLQMNSLKREDTAVYYCAAAITPSYTGSQYDYWGQGTQVTVSS | low polyreactivity
QVQLVESGGGLVQAGGSLRLSCAASGRTFYVYDMGWYRQAPGKERELVAAISNICTRTYYADSVKGRFTISRDNAKNTVYLQMNSLKPEVTAVYYCATGRSRVYKGRGDYWGQGTHVTVSS | high polyreactivity
QVQLVESGGGLVQAGGSLRLSCAASGSTFTKYAMGWYRQAPGKERELVAAITASGGNTYYADSVKGRFTISRDNAKKTVYLQMNSLKPEDTAVYYCAARQYRYKYDYWGQGTQVTVSS | high polyreactivity
QVQLVESGGGLVQEGGSLRLICAASGRTFYPNAMGWYRQAPGKERELVADITYSGASTYYADSVKGRFTISRDYAKNTVYLQMNSLKPEDTAVYYCNADDSCVLVYVPYDYWGQGTQVTVSS | low polyreactivity
QVQLVESGGGLVQAGGSLRLSCAASGFISNGYAMGWYRQAPGKEREFVASISSSGGSTYYADSVKGRFTISRDIAKNTVYLQMNSLKTEDTAVYYCNARYWWVIKVKLGYWGQGTQVTVSS | low polyreactivity
QVQLQESGGGLVLAGGSLRLSCAASGSISAQAYMGWDRQAPGKEREHVAGINYGDNTNYADSVKGRFTISRDNEHRVSADEQPETGRYRVVLLRGFLELFYYYIYWGQGTQVTVSS | high polyreactivity
QVQLVESGGGLVQAGGSLRLSCAASGLIFADNAMGWYRQAPGKEWELVASITLGDTSTYYADSVKGRFTISRYNAKNTVYLQMNSLKPEDTAVYYCAKDVYPSVSLYELPDDYWGQGTQVTVSS | low polyreactivity
QVQLVESGGGLVQAGGSLRLSCAASGSTFKRYDLGWYRQAPGKERELFAAIRTSGGTTYYADSVKCRFTISRDYAKNNVYLQMNSLKPEDTAVYYCAASKWPRHRTRRYYYWVQGTQVTVSS | high polyreactivity
QVQLVESGGGLVQAGGSLRLSCAASGSIFYYYTRGWSRQAPGKEMELVAAITSGGSTYYADSVKGRFTISRDNAKNTVYLQMNSLKPEDTAVYYCAAPIYYRLWKPGYEYWGQGTQVTVSS | high polyreactivity
QVQLVESGGGLVQAGGSLRLSCAASGSTFWLYTMGCYRQAPVKERELVAAISTRGGSTYYADSVKGRFTISRDNAKNTVYVQMHSLKPEDTAVYYCAAYPTYGEYDYWGQGSQVTVSS | high polyreactivity
QGQLVESGGGLVQAGGSLRLSCAASGRTFPRYAMGWYRQAPGKERELVAVISFSGDSTSYADSVKGRFTISRDNAKNTVYLQMNSQKPEDTAVYYCKADYKSTVVRYSGSRNYWGQGTQVTVSS | low polyreactivity
